In article PMC4010280 one finds kcat and kcat/Km data, which are given here for one protein.

Substrate in data set [1]: O=C(O)[C@@H](O)[C@H](O)[C@H](O)[C@@H](O)CO
As to the kind of experiment: purified protein.

Substrate in data set [2]: O=C(O)[C@H](O)C(O)[C@@H](O)C(=O)O
As to the kind of experiment: purified protein.

Substrate in data set [3]: O=C(O)[C@@H](O)[C@H](O)[C@H](O)CO
As to the kind of experiment: purified protein.

Substrate in data set [4]: O=C(O)[C@H](O)[C@H](O)[C@H](O)CO
As to the kind of experiment: purified protein.

Substrate in data set [5]: C[C@H](O)[C@@H](O)[C@@H](O)[C@H](O)C(=O)O
As to the kind of experiment: coupled enzyme dehydration assay. It counts as biochemical, Homo sapiens.

B1: rTSγ (HsrTSγ) (Homo sapiens) (protein)
chain: MVRGRISRLSVRDVRFPTSLGGHGADAMHTDPDYSAAYVVIETDAEDGIKGCGITFTLGKGTEVVVCAVNALAHHVLNKDLKDIVGDFRGFYRQLTSDGQLRWIGPEKGVVHLATAAVLNAVWDLWAKQEGKPVWKLLVDMDPRMLVSCIDFRYITDVLTEEDALEILQKGQIGKKEREKQMLAQGYPAYTTSCAWLGYSDDTLKQLCAQALKDGWTRFKVKVGADLQDDMRRCQIIRDMIGPEKTLMMDANQRWDVPEAVEWMSKLAKFKPLWIEEPTSPDDILGHATISKALVPLGIGIATGEQCHNRVIFKQLLQAKALQFLQIDSCRLGSVNENLSVLLMAKKFEIPVCPHAGGVGLCELVQHLIIFDYISVSASLENRVCEYVDHLHEHFKYPVMIQRASYMPPKDPGYSTEMKEESVKKHQYPDGEVWKKLLPA
B1: the kcat (as a rule, the number of substrate molecules converted per active site and unit of time at saturation) in the data set “purified protein [1]” amounted to 0.3 ± 0.01 s⁻¹; in the data set “purified protein [2]” it was 0.3 ± 0.004 s⁻¹; in the data set “purified protein [3]” it was 0.04 ± 0.002 s⁻¹; in “purified protein [4]”, 0.002 ± 0.001 s⁻¹; in data set [5] it was 0.5 ± 0.006 s⁻¹. In addition, the kcat/Km (usually the second-order rate constant that governs catalysis at low substrate concentration) was found to be 100 M⁻¹ s⁻¹ in “purified protein [1]”; 75 M⁻¹ s⁻¹ in “purified protein [2]”; 20 M⁻¹ s⁻¹ in “purified protein [3]”; 5 M⁻¹ s⁻¹ in “purified protein [4]”; 2500 M⁻¹ s⁻¹ in data set [5].
